Changes are numbered by the printed parent chain. In names and notes the source's numbering stands. Like-named read-outs stand apart in the source and are kept apart here. One block for each binder: values may come before it.
Columns and labels:
重组的人PD-L1-His [1] = biological target: T1, 重组的人PD-L1-His (human, UniProt Q9NZQ7 19-238, limits assumed); assay: BLI (Octet K2), antibody on AMC sensor, hPD-L1-His analyte
T1 construct: Analyte in the BLI assays; also called hPD-L1-His; hPD-L1; not shown: His tag
T1 sequence (Q9NZQ7 19-238 limits assumed): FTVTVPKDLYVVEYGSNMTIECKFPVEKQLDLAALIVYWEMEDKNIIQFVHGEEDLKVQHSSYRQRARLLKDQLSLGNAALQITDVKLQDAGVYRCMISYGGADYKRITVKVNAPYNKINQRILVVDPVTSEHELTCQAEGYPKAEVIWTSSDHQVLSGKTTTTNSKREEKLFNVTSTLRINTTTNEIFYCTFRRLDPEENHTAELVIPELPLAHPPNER

[2] = biological target: T2, PD-L1 (in the mixed lymphocyte reaction of human dendritic cells and CD4+ T cells) (human, UniProt Q9NZQ7 19-290); assay: cell-based or functional assay
T2 sequence (Q9NZQ7 19-290 limits assumed): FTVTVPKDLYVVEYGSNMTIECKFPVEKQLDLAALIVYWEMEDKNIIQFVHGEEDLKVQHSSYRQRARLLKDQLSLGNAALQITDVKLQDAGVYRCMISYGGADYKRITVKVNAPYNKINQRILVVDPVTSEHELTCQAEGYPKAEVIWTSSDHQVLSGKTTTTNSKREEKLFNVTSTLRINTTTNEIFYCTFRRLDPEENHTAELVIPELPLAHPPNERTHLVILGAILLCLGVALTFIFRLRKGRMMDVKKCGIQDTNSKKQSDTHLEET

[3] = biological target: T3, mPD-L1细胞 (HEK293 cells expressing mouse PD-L1-EGFP) (mouse, UniProt Q9EP73 19-290); assay: FACS on transfected HEK293 cells
T3 construct: also called mPD-L1-EGFP; 小鼠PD-L1; not shown: enhanced green fluorescent protein EGFP, UniProt C5MKY7
T3 sequence (Q9EP73 19-290): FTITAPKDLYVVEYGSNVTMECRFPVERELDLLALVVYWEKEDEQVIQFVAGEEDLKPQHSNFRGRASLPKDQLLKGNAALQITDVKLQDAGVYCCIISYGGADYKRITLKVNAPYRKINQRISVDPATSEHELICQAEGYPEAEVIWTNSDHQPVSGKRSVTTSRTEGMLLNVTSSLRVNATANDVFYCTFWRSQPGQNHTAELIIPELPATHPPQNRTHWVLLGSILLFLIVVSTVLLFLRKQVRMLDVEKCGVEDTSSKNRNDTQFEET

[4] = biological target: T4, hPD-1-EGFP细胞 (HEK293 cells expressing human PD-1-EGFP) (human, UniProt Q15116 25-288); assay: FACS on transfected HEK293 cells
T4 construct: Fusion expressed on transfected HEK293 cells; not shown: enhanced green fluorescent protein EGFP, UniProt C5MKY7
T4 sequence (Q15116 25-288): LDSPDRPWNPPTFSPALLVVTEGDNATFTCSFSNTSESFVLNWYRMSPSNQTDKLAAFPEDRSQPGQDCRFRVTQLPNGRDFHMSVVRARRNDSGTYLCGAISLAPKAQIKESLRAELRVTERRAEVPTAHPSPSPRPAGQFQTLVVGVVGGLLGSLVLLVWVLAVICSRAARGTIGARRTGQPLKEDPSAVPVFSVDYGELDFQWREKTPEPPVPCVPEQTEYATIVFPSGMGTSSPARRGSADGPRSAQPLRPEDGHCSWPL

[5] = biological target: T5, hB7H4细胞 (HEK293 cells expressing human B7H4-EGFP) (human, UniProt Q7Z7D3 25-282); assay: FACS on transfected HEK293 cells
T5 construct: also called hB7H4-EGFP; not shown: enhanced green fluorescent protein EGFP, UniProt C5MKY7
T5 sequence (looked up): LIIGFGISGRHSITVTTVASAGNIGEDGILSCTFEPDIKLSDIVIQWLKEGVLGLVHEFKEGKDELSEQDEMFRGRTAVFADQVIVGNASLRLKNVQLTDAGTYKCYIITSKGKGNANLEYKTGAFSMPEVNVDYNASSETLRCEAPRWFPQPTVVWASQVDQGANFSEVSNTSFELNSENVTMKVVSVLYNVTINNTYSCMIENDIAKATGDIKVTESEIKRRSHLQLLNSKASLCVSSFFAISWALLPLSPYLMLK

[6] = biological target: T6, hB7H3-EGFP细胞 (HEK293 cells expressing human B7H3-EGFP) (human, UniProt Q5ZPR3 29-534); assay: FACS on transfected HEK293 cells
T6 construct: not shown: enhanced green fluorescent protein EGFP, UniProt C5MKY7
T6 sequence (looked up): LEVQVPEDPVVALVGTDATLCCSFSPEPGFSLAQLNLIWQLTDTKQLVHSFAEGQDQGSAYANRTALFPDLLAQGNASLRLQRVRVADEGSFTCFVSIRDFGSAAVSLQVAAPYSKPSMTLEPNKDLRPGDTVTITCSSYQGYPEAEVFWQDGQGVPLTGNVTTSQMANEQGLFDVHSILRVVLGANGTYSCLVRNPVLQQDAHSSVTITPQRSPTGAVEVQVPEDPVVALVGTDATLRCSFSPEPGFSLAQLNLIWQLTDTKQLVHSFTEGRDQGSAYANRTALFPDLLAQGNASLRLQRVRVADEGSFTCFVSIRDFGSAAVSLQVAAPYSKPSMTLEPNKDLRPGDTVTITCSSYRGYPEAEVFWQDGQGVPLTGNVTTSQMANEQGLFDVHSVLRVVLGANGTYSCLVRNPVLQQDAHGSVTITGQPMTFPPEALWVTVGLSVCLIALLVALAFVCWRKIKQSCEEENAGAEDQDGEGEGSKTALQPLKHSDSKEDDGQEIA

[7] = biological target: T7, hPD-L1-EGFP细胞 (HEK293 cells expressing human PD-L1-EGFP) (human, UniProt Q9NZQ7 19-290); assay: FACS on PD-L1-EGFP cells
T7 construct: Fusion expressed on transfected HEK293 cells; junction between PD-L1 and EGFP not described; also called 细胞表面PD-L1; not shown: enhanced green fluorescent protein EGFP, UniProt C5MKY7
T7 sequence (Q9NZQ7 19-290): as the sequence (Q9NZQ7 19-290 limits assumed) above

重组的人PD-L1-His [8] = biological target: T1, 重组的人PD-L1-His; assay: BLI (Octet K2), antibody on AHC sensor, hPD-L1-His analyte
hPD-L1-Fc = biological target: T8, hPD-L1-Fc (human, UniProt Q9NZQ7 19-238); assay: ELISA blocking assay, hPD-L1-Fc coated, competitor PD-1-Biotin 10μg/ml
T8 construct: range 1-238; The stated range 1-238 begins at residue 1 and so includes the native signal peptide; No linker is stated; also called hPD-L1-Fc融合蛋白
T8 sequence (Q9NZQ7 19-238 limits assumed, form in doubt): as the sequence (Q9NZQ7 19-238 limits assumed) above

重组的人PD-L1-His [9] = biological target: T1, 重组的人PD-L1-His; assay: BLI as in Example 4, hPD-L1-His analyte
[10] = biological target: T2, PD-L1 (in the mixed lymphocyte reaction …); assay: cell-based or functional assay; remark: listed apart in the source
[11] = biological target: T2, PD-L1 (in the mixed lymphocyte reaction …); assay: cell-based or functional assay; remark: listed apart in the source
重组的人PD-L1-His [12] = biological target: T1, 重组的人PD-L1-His; assay: BLI as in Example 4, hPD-L1-His analyte; remark: listed apart in the source

B1: 抗体5A5 (antibody, V domains shown)
VH: EVQLQESGPSLVKPSQTLSLTCSVTGDSITSGYWNWIRKFPGNKLEYMGYISYTGSTYYNPSLKSRISITRDTSKNQYYLQLNSVTTEDTATYYCAKYGLWHLPAAMDYWGQGTSVTVSS
VL: DIVLTQSPAIMSASPGEKVTMTCSASSSISYMHWYQQKPGTSPKRWIYDTSKLASGVPARFSGSGSGTSYSLTISSMEAEDAATYYCHQRSSYPFTFGSGTKLEIK
notes: Mouse antibody purified from hybridoma supernatant on protein A
Kd (重组的人PD-L1-His [1]): 5.75 nM
koff (重组的人PD-L1-His [1]): 0.00453 s⁻¹
kon (重组的人PD-L1-His [1]): 788000 M⁻¹ s⁻¹
EC50 of IFN-γ secretion in mixed lymphocyte reaction (MLR) [2]: 0.104 µg/mL
binding result [3]: no binding (tested: 10μg/ml)
binding result [4]: no binding (tested: 10μg/ml)
binding result [5]: no binding (tested: 10μg/ml)
binding result [6]: no binding (tested: 10μg/ml)
EC50 [7]: 1.33 µg/mL

B3: 人源化抗体8G1 3-3 (antibody, V domains shown)
VH: QVQLVQSGAEVKKPGASVKVSCKASGYTFTEYIIHWVKQAPGQGLEWIGWFYPGSGNIRYNEKFKDKATLTADKSSSTVYMELSSLRSEDTAVYFCARHEDKGAWFAYWGQGTLVTVSS
VL: DIVLTQSPATLSLSPGERATLSCSASSNVSYMYWYQQKPGQSPKPWIYLTSNLASGVPARFTGSGSGTSYTLTISSLEPEDFAVYYCQQWSSNPLTFGQGTKVEIK
notes: Humanized; also called 8G1VLV3 + 8G1VHV3
Kd (重组的人PD-L1-His [8]): 0.0163 nM
koff (重组的人PD-L1-His [8]): 5.79e-06 s⁻¹
kon (重组的人PD-L1-His [8]): 355000 M⁻¹ s⁻¹
IC50 (hPD-L1-Fc): 1.24 µg/mL

B4: 8G1 3-3NG (antibody, V domains shown)
VH: B3 VH
VL: B3 VL with N28Q
notes: Glycosylation-site variant of humanized 8G1 3-3; human IgG1 format as for 8G1 3-3; also called 8G1 3-3 with N28 mutated in VL
Kd (重组的人PD-L1-His [9]): 6.89 nM
koff (重组的人PD-L1-His [9]): 0.00174 s⁻¹
kon (重组的人PD-L1-His [9]): 252000 M⁻¹ s⁻¹

B5: 人源化抗体7A3 3-3 (antibody, V domains shown)
VH: QVQLQESGPGLVKPSETLSLTCTVSGDSITSGYWNWIRKPPGNGLEYMGYISYTGSTYYNPSLKSRITITRDTSKNQYSLKLSSVTAADTAVYYCARFGLWHLPAALDYWGQGTLVTVSS
VL: DIVLTQSPATLSLSPGERATLSCSAKSSISYMHWYQQKPGTSPKRWIYDTSKLASGVPARFSGSGSGTSYTLTISSLEPEDFAVYYCHQRSSYPFTFGQGTKVEIK
notes: Humanized; also called 7A3VLV3 + 7A3VHV3
Kd (重组的人PD-L1-His [8]): 2.85 nM
koff (重组的人PD-L1-His [8]): 0.00128 s⁻¹
kon (重组的人PD-L1-His [8]): 449000 M⁻¹ s⁻¹
IC50 (hPD-L1-Fc): 1.44 µg/mL
EC50 of IFN-γ secretion in mixed lymphocyte reaction (MLR) [10]: 0.0285 µg/mL
EC50 of IFN-γ secretion in mixed lymphocyte reaction (MLR) [11]: 0.449 µg/mL
Kd (重组的人PD-L1-His [12]): 13.2 nM
koff (重组的人PD-L1-His [12]): 0.00547 s⁻¹
kon (重组的人PD-L1-His [12]): 415000 M⁻¹ s⁻¹

B6: 7A3 3-3ND (antibody, V domains shown)
VH: B5 VH with G44D
VL: B5 VL
notes: human IgG1 format as for 7A3 3-3; also called 7A3 3-3 with G44D in VH
EC50 of IFN-γ secretion in mixed lymphocyte reaction (MLR) [10]: 0.576 µg/mL
Kd (重组的人PD-L1-His [12]): 14.4 nM
koff (重组的人PD-L1-His [12]): 0.00631 s⁻¹
kon (重组的人PD-L1-His [12]): 438000 M⁻¹ s⁻¹

B7: 7A3 3-3QG (antibody, V domains shown)
VH: B5 VH with N43Q
VL: B5 VL
notes: human IgG1 format as for 7A3 3-3; also called 7A3 3-3 with N43Q in VH
EC50 of IFN-γ secretion in mixed lymphocyte reaction (MLR) [10]: 1.05 µg/mL

Second part, the binder after the results:

Kd (重组的人PD-L1-His [1]): 4.29 nM
koff (重组的人PD-L1-His [1]): 0.0036 s⁻¹
kon (重组的人PD-L1-His [1]): 840000 M⁻¹ s⁻¹
EC50 of IFN-γ secretion in mixed lymphocyte reaction (MLR) [2]: 0.0588 µg/mL
binding result [3]: no binding (tested: 10μg/ml)
binding result [4]: no binding (tested: 10μg/ml)
binding result [5]: no binding (tested: 10μg/ml)
binding result [6]: no binding (tested: 10μg/ml)
EC50 [7]: 2.76 µg/mL
B2: 抗体7A3 (antibody, V domains shown)
VH: B1 VH with K44D, K97R, Y98F, M107L
VL: B1 VL with S26K
notes: as for B1

Kd (重组的人PD-L1-His [8]): 23.6 nM
koff (重组的人PD-L1-His [8]): 0.0119 s⁻¹
kon (重组的人PD-L1-His [8]): 504000 M⁻¹ s⁻¹
IC50 (hPD-L1-Fc): 1.82 µg/mL
EC50 of IFN-γ secretion in mixed lymphocyte reaction (MLR) [11]: ~0.176 µg/mL
B8: 人源化抗体7A3 1-3 (antibody, V domains shown)
VH: B5 VH
VL: B5 VL with T41Q, S42A, K44R, R45L, W46L, S69D, Y70F
notes: Humanized; also called 7A3VLV1 + 7A3VHV3

Kd (重组的人PD-L1-His [1]): 2.32 nM
koff (重组的人PD-L1-His [1]): 0.00117 s⁻¹
kon (重组的人PD-L1-His [1]): 504000 M⁻¹ s⁻¹
EC50 of IFN-γ secretion in mixed lymphocyte reaction (MLR) [2]: ~0.03 µg/mL
binding result [3]: no binding (tested: 10μg/ml)
binding result [4]: no binding (tested: 10μg/ml)
binding result [5]: no binding (tested: 10μg/ml)
binding result [6]: no binding (tested: 10μg/ml)
EC50 [7]: 2.25 µg/mL
B9: 抗体8G1 (antibody, V domains shown)
VH: KVQLRQSGAELVKPGTSVKLSCKASGYTFTEYIIHWVKQRSGQGLEWIGWFYPGSGNIRYNEKFKDKATLTADKSSSTVYMELSRLTSEDSAVYFCARHEDKGAWFAYWGQGTLVTVSA
VL: DIVLTQSPALLSASPGEKVTMTCSASSNVSYMYWYQQKPRSSPKPWIYLTSNLASGVPARFTGSGSGTSYSLTISSMEAEDGATYYCQQWSSNPLTFGAGTKLEVK
notes: as for B1

Reference: patent CN111662383A (ZHUHAI LIVZON MCAB BIOTECHNOLOGY CO LTD; DINGFU BIOTARGET …, dated 2020)
